Reference: the supplement of paper PMC9170038

Tests used:
MS2 coat protein [1] = test: apparent KD of MS2 coat protein, switch ON state; designed switch direction (-1 OFF switch, 1 ON switch): -1; higher = weaker reporter binding; details: FMN input: 0 or 200 uM; Eterna round: R93 (includes R88 designs)
Procedure, shortened: (§1)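 Each design's apparent KD comes from the median of binding-curve fits to its normalised clusters. Those clusters carried RNA switches transcribed on-chip from Illumina sequencing clusters. SNAP-549-labelled MS2 coat protein was titrated onto them in twofold steps (0.7 or 1.5 nM to 3 µM; per step 0.8–1.5 h down to 10–20 min). Conditions were 100 mM Tris-HCl pH 7.5, 80 mM KCl, 4 mM MgCl2, without or with constant ligand.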

MS2 coat protein [2] = test: apparent KD of MS2 coat protein, switch OFF state (with FMN for OFF switches, without FMN for ON switches); designed switch direction (-1 OFF switch, 1 ON switch): -1; higher = weaker reporter binding; details: FMN input: 0 or 200 uM; Eterna round: R93 (includes R88 designs)
Procedure, shortened: as §1

Sequence | apparent KD of MS2 coat protein (MS2 coat protein [1]) | apparent KD of MS2 coat protein (MS2 coat protein [2])
AAAGGACGAGGAUAUACAUGAGGAUCACCCAUGUAAAGGGCAUAAUAAAAGAACUUAUGUAGAAGGCGUCCAAA [69%, Moding Meechl, 6] | 79.1 nM | 15.6 nM
ACAUGACAUGAGGAUCACCCAUGUGAGGAUAUGCGAAAAAAAUUUUUAAAAAAAAUUGGCAGAAGGCACAAAAU [George Ritzer.] | 88.9 nM | 99.1 nM
AAACUACUAGGAUAUGCAGAAAGGGUGUAUCCUUAAACUCCACAUGAGGAUCACCCAUGUAGAAGGAGUAAUCG [Dilaquis] | 32.4 nM | 46.4 nM
AAAAAGUCAGGAUAUCGGAAAAAAAAAAAAAAAAAAAAAAACGAGAAGGGACAUGAGGAUCACCCAUGUAUGAC [Ex 4 May 7] | 56.9 nM | 243 nM
AAGAAGGCAGGAUAUACAUGAGGAUCACCCAUGUAAAAGAAAGAAAAGGGAAAGAAAAGUAGAAGGGCCAAGAA [Kamose] | 35.4 nM | 72.1 nM
UACGGACAUGAGGAUCACCCAUGUGAGGAUAUCGAUACCGAUAGCAUAAUAUAAUCGGCGAGAAGGCACAGCGU [JR_Exc001_Sub505] | 39.9 nM | 54.7 nM
AAAAAGUAAGGAUAUGCGAAUAAAUAAGAAGAAGAAAGAAAGCAGAAGGUACAUGAGGAUCACCCAUGUAAAAA [Ex 4 Tesla 1] | 36.3 nM | 22.5 nM
AACAGUACAGGAUAUACAUGAGGAUCACCCAUGUGAAAUAAAAGUGGCGUACCACAAAGUAGAAGGGUACUGAA [Mat - Exclusion 3 - JL mod - D27] | 27.1 nM | 90.5 nM
AAAAUACAUGAGGAUCACCCAUGUGAGGAUAUGCUAUGGAAAAUAAAAAUAAAACAUAGCAGAAGGCACAAAAA [Denovo 13] | 37 nM | 56.7 nM
AAGAAAGCAGGAUAUACAUGAGGAUCACCCAUGUAAAAGAAAGAGGGAAAAGAGAAAAGUAGAAGGGCUAAGAA [Cleopatra IV] | 37.3 nM | 33.8 nM
CCGAGACAUGAGGAUCACCCAUGUGAGGAUAUAGGUGUAUGCAAAAAAAAGUUAAAAACUAGAAGGCACAGAGG [JR_Exc001_Sub307] | 37 nM | 30.9 nM
AGAAUUGUAGGAUAUACAUGAGGAUCACCCAUGUGGGAGGUGGAGCAAACAAGACGAGGUAGAAGGACAACGAC [JR_Exc003-Sub904] | 134 nM | 125 nM
AAAAAGUCAGGAUAUAGCAAAGGUCACGAAAGUGACAAAGGCUAGAAGGGACAUGAGGAUCACCCAUGUAAAAA [Fiskers Exclusion 4 D2] | 53 nM | 38.8 nM
AAGACUACAGGAUAUACAUGAGGAUCACCCAUGUAACUGACAAGUAGAGUACGGAGAAGUAGAAGGGUAGUCAA [Ruby 34] | 14.9 nM | 17.6 nM
AAGAACUGAGGAUAUACAUAAUAAAAGAAAAGAAACAAAGAACAUGAGGAUCACCCAUGUAGAAGGCGGAAGAA [Menwadjre Sihathor] | 29.4 nM | 20.7 nM
AAAAAGGAAGGAUAUACGAACAUGUCAAAAGACGUGAAGGGACAUGAGGAUCACCCAUGUAGAAGGUCUAAAAA [JL Half Open 26] | 32.4 nM | 22.9 nM
AAUGCGGCAGGAUAUACAUGAGGAUCACCCAUGUACAUCAGAUAUAUGGUCGAACCAUGUAGAAGGGCCGCAAA [Ex 3May 57] | 87.3 nM | 202 nM
AACAGCACAGGAUAUACAUGAGGAUCACCCAUGUGAGAAUUAAGUGGCGUACCACAAAGUAGAAGGGUGCUGGA [Mat - Exclusion 3 - JL mod - D39] | 35.9 nM | 203 nM
AAAAGCACAGGAUAUACGGGAUUAUGACGAAAGUCAUAAAAACAUGAGGAUCACCCAUGUAGAAGGGUGCAAAA [Mod of Meechl's... 64% 2] | 191 nM | 248 nM
AAGAAGCUAGGAUAUACAUGAGGAUCACCCAUGUAAAAGAAAGAAGGGAAAGAGAAAAGUAGAAGGAGCAAGAA [Tefnakht] | 26.6 nM | 34.4 nM
AAAAUGAAAGGAUAUACAUGAGGAUCACCCAUGUUCCAGAACAGGAGUACAAGCGAGUGUAGAAGGUUCAGCAA [Ercesois] | 22.3 nM | 42.7 nM
AAGAAGGUAGGAUAUGCUAAAGAAAUAAAAAUAAAUAAAGAACAUGAGGAUCACCCAUGUAGAAGGGCCAAGAA [Mer[...]re] | 47.3 nM | 27.9 nM
